The source of these data is paper PMC3989047, “Purification and characterization of tyrosinase from walnut leaves (Juglans regia)” (Phytochemistry, 2014).

Substrate in series [1]: N[C@@H](Cc1ccc(O)c(O)c1)C(=O)O
Kind of series: purified protein. It is filed as biochemical, Juglans regia. To be noted: 50 mM sodium phosphate pH 6.5, five substrate concentrations 0.29-1.96 mM.

Substrate in series [2]: N[C@@H](Cc1ccc(O)cc1)C(=O)O
Kind of series: purified protein. The note with it: 50 mM sodium phosphate pH 6.5, five substrate concentrations 0.29-1.96 mM. It is filed as biochemical, Juglans regia.

B1: jrPPO1(Asp101 → Arg445), Juglans regia tyrosinase (form 2) (Juglans regia) (protein)
chain: DPVSAPELTLCSEADLPAGALPVNCCPPTSKKIKDFVLPSQNTPLRVRPAAHLVDNDYIAKYNKGIELMKSLPADDPRSFTQQANVHCAYCDGAYTQVGFPDLSLQVHECWLFFPFHRYYVYFFEKILGKLIGDPTFALPFWNWDSPPGMQLPSLYAVSNSAIYDPLRNANHQPPTIIDLDYGETSESTTTTDQVPSNLKIMYRQMVSGAKNPTLFFGSPYRAGDEPDPGAGTIESTPHNNIHLWTGDDTQPNIENMGNFYSAGRDPIFFAHHSNVDRMWTIWKTLGGKRKDITDPDWLNSSFFFYDENADPVRVKVKDCVDNTKLRYVYQDVEIPWLKTKPTPR
notes: native, purified from walnut leaves; 39,047 Da
Regarding B1, in “purified protein [1]”, the Km (as a rule, the concentration of substrate that gives half-maximal velocity) amounted to 8.8 mM; the Vmax (as a rule, the top rate of the reaction or transport when substrate is in excess) stood at 60 µM/min; the Vmax/Km worked out at 0.01 min⁻¹; the kcat (as a rule, the maximal rate divided by the concentration of active sites) worked out at 199 s⁻¹. The kcat/Km (usually the turnover number divided by the Michaelis constant) in the series “purified protein [1]” was 22800 M⁻¹ s⁻¹. In addition, in “purified protein [2]”, the Km was determined as 1.9 mM, the Vmax came to 80 µM/min, the Vmax/Km was 0.04 min⁻¹ and the kcat is 20.8 s⁻¹. Moreover, the kcat/Km in the series “purified protein [2]” is 10900 M⁻¹ s⁻¹.
